This is an account of results in US20240270840A1 (NECTIN THERAPEUTICS, published 2024).

To fix the notation:
B1: H11K2 (full humanized antibody) (antibody, V domains shown)
VH: QVQLVQSGAEVKKPGSSVKVSCKASGYTFTSYWINWVRQAPGQGLEWIGDIYPGSYIPNYNEKFKNRATLTVDTSASTAYMELSSLRSEDTAVYYCAGGYFDVWGQGTTVTVSS
VL: DIVMTQSPDSLAVSLGERATINCKSSQSLLSSGNQKNYLAWYQQKPGQPPKLLIYGASTRESGVPDRFTGSGSGTDFTLTISSLQAEDVAVYYCQNDHSYPYTFGQGTKLEIK
notes: Humanized full antibody, human IgG1; also called VH11K2
B2: VH10K2 (full humanized antibody) (antibody, V domains shown)
VH: B1 VH with R87A, V93L
VL: B1 VL
notes: Humanized full antibody, human IgG1
B3: VH0 N28T Vk0 (antibody, V domains shown)
VH: QVQLQQPGAELVKPGTSVKLSCKASGYTFTSYWINWVKLRPGQGLEWIGDIYPGSYIPNYNEKFKNKATLTVDTSSSTAYMQLTSLASEDSALYYCAGGYFDVWGAGTTVTVSS
VL: B1 VL with D9S, A12S, L15A, R18K, A19V, I21M, N22S, L84V, V89L, Q106G
notes: Variant of VH0K0; also called VH0K0 N28T
B4: VH10K3 (full humanized antibody) (antibody, V domains shown)
VH: B1 VH with R87A, V93L
VL: B1 VL with T69S
notes: as for B2
B5: H11K1 (full humanized antibody) (antibody, V domains shown)
VH: B1 VH
VL: B1 VL with A12S
notes: Humanized full antibody, human IgG1; also called VH11K1
B6: H11K3 (full humanized antibody) (antibody, V domains shown)
VH: B1 VH
VL: B1 VL with T69S
notes: Humanized full antibody comprising hIgG1 Fc; also called VH11K3
B7: VH0 N28S Vk0 (antibody, human IgG1, V domains shown)
VH: B3 VH with T28S
VL: B1 VL with D9S, A12S, L15A, R18K, A19V, I21M, N22S, L84V, V89L, Q106G
notes: Variant of VH0K0
B8: VH0 T30A Vk0 (antibody, human IgG1, V domains shown)
VH: B3 VH with T28N, T30A
VL: B1 VL with D9S, A12S, L15A, R18K, A19V, I21M, N22S, L84V, V89L, Q106G
notes: Variant of VH0K0
B9: Clone 15 (antibody, V domains shown)
VH: B3 VH with T28N, Y52F, I57S, E62K, N66R, T84S
VL: DIVMTQSPSSLSVSAGEKVTMSCKSSQSLLNSGSQKNYLAWYQQKPGQPPKLLIYGASTRESGVPDRFTGSGSGTDFTLTISFVQAEDLAVYYCQNDHSYPYTFGGGTKLEIK

Residue numbers refer to the chain shown, from its start. Names may count otherwise.

In one assay the target is T1, Human CD112R (PVRIG) (human, UniProt Q6DKI7 41-171, limits assumed).
T1 sequence (looked up): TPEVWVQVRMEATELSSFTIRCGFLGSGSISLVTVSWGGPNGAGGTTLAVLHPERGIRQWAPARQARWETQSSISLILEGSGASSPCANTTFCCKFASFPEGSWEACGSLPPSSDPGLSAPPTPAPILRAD
Nature of the assay: SPR (Biacore); purified full antibody. A general note: In SPR one partner is held on a chip, and binding of the other changes the refractive index at the surface.
Turning to B1, the Kd (commonly the constant that tells how readily two partners part at equilibrium) came to 0.112 nM; the “Relative Kd (against VH0K0 N28T)” value was determined as 0.89; the koff (as a rule, the rate constant with which the complex falls apart) was determined as 3.77e-05 s⁻¹; the kon (as a rule, a measure of how fast the partners come together) was 336000 M⁻¹ s⁻¹.

For the molecule B2, binding was characterised by a dissociation constant (Kd) of 0.119 nM, the “Relative Kd (against VH0K0 N28T)” value is 0.94, the koff was found to be 4.27e-05 s⁻¹ and the on-rate (kon) was determined as 359000 M⁻¹ s⁻¹.

For B3, the Kd came out at 0.126 nM, the “Relative Kd (against VH0K0 N28T)” value amounted to 1, the koff came to 5.02e-05 s⁻¹ and the kon came to 400000 M⁻¹ s⁻¹.

Turning to B4, the Kd stood at 0.121 nM, the “Relative Kd (against VH0K0 N28T)” value came to 0.96, the koff was determined as 4.36e-05 s⁻¹ and the kon stood at 361000 M⁻¹ s⁻¹.

A further assay has as its target Cynomolgus monkey (Macaca fascicularis) CD112R expressed on cells (cynomolgus monkey (Macaca fascicularis)). Nature of the assay: flow cytometry on cynomolgus CD8 T cells (endogenous CD112R).
For B1, the EC50 – broadly, the concentration needed to bring the measured effect to its halfway point – turned out to be 1.29 nM and the Max binding Cyno (MFI a.u - background) was found to be 839 MFI a.u.

Molecule B2 came in with an EC50 of 1.45 nM and a Max binding Cyno (MFI a.u - background) of 914 MFI a.u.

On to B5, for which the EC50 amounted to 1.46 nM and the Max binding Cyno (MFI a.u - background) amounted to 820 MFI a.u.

With B4, the EC50 came out at 1.39 nM and the Max binding Cyno (MFI a.u - background) is 933 MFI a.u.

B6 came in with a half-maximal effective concentration (EC50) of 1.27 nM and a Max binding Cyno (MFI a.u - background) of 833 MFI a.u.

For a further assay, the target named is T2, Human CD112R expressed on cells (human, UniProt Q6DKI7 1-326).
T2 construct: whole, on cells; also called HuCD112R; hCD112R
T2 sequence (looked up): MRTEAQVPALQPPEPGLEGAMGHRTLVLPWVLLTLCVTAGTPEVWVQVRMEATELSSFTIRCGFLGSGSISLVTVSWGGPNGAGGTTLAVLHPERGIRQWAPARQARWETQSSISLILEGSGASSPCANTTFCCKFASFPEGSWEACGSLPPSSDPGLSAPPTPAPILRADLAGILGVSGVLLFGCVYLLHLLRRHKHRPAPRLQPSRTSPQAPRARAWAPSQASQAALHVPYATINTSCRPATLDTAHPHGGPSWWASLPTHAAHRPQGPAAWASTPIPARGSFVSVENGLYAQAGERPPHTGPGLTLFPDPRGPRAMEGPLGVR
Nature of the assay: flow cytometry on human NK cells (endogenous CD112R). As to the method: (§1) The humanized mAbs were tested for binding of endogenous and overexpressed human and cynomolgus CD112R.
(§2) Table 7 summarizes EC50 values calculated based on the binding curves of selected humanized mAbs to cynomolgus CD8 T cells and human NK cells, both cells expressing endogenous CD112R of the relevant species. Assay was performed as in Table 6. An anti-CD112R mAb disclosed in WO2016134333 was used for comparison. All the humanized variants have a complete cross-reactivity between the human and cynomolgus targets.
Background: In flow cytometry, cells or beads pass a laser one at a time.
As for B1, the EC50 was found to be 1.06 nM.

Turning to B2, the response was half-maximal at 0.86 nM (EC50).

The molecule B5 registered an EC50 of 0.91 nM.

In the case of B4, a half-maximal response (EC50) required 0.77 nM.

B6 came in with an EC50 of 1.11 nM.

A further assay deals with T2, Human CD112R expressed on cells. The assay is described as above. This is another data set of the same source.
B1: the “Max binding Hu (MFI a.u - background)” value stood at 1020 MFI a.u.

B2: the “Max binding Hu (MFI a.u - background)” value was determined as 975 MFI a.u.

Take B5: the “Max binding Hu (MFI a.u - background)” value is 982 MFI a.u.

Regarding B4, the “Max binding Hu (MFI a.u - background)” value came out at 988 MFI a.u.

As to B6, the “Max binding Hu (MFI a.u - background)” value amounted to 1000 MFI a.u.

Another assay deals with Cynomolgus monkey (Macaca fascicularis) CD112R expressed on cells (cynomolgus monkey (Macaca fascicularis)). Nature of the assay: flow cytometry; EC-50 on cynomolgus CD8 T cells against EC-50 on human NK cells.
On to B1, for which the Ratio Cyno/Hu (EC-50) was found to be 1.22.

Consider B2, for which the Ratio Cyno/Hu (EC-50) came to 1.69.

Take B5: the Ratio Cyno/Hu (EC-50) was found to be 1.61.

As to B4, the Ratio Cyno/Hu (EC-50) was 1.81.

Take B6: the Ratio Cyno/Hu (EC-50) amounted to 1.14.

For the next assay the target is unchanged. Nature of the assay: flow cytometry on 293T cells; EC50 on cynomolgus CD112R against EC50 on human CD112R.
On to B1, for which the Ratio Cyno/Hu (EC50) is 2.54.

Turning to B2, the Ratio Cyno/Hu (EC50) was determined as 1.07.

For the molecule B5, the Ratio Cyno/Hu (EC50) was 2.43.

For B4, the Ratio Cyno/Hu (EC50) amounted to 1.67.

Take B6: the Ratio Cyno/Hu (EC50) came to 1.93.

A further assay concerns the target T1, Human CD112R (PVRIG). Briefly: affinity of glycosylation-motif variants (Table 2; method not named there).
For B7, the Kd was found to be 0.116 nM and the “Relative Kd (against VH0Vk0)” value amounted to 0.66.

In the case of B3, binding was characterised by a dissociation constant (Kd) of 0.102 nM and the “Relative Kd (against VH0Vk0)” value was determined as 0.61.

B8: the Kd was 0.106 nM and the “Relative Kd (against VH0Vk0)” value turned out to be 0.63.

For the next assay, the target named is Cynomolgus monkey (Macaca fascicularis) CD112R expressed on cells (cynomolgus monkey (Macaca fascicularis)). Briefly: flow cytometry on 293T cells expressing cynomolgus CD112R; 99-0.05 nM, three-fold dilutions.
B1 had an EC50 of 0.71 nM.

Molecule B2 yielded an EC50 of 0.42 nM.

Regarding B5, the EC50 came out at 0.72 nM.

With B4, the EC50 was 0.5 nM.

The molecule B6 had an EC50 of 0.6 nM.

Another assay deals with T1, Human CD112R (PVRIG). Briefly: SPR (Biacore); purified full antibody; * limit of the Biacore instrument sensitivity.
Consider B5, for which binding was put at a Kd of 0.0167 nM, the “Relative Kd (against VH0K0 N28T)” value worked out at 0.13, the off-rate constant (koff) is 4.79e-06 s⁻¹ and the kon was determined as 287000 M⁻¹ s⁻¹.

Turning to B6, the Kd was 0.0788 nM, the “Relative Kd (against VH0K0 N28T)” value amounted to 0.63, the koff came to 2.42e-05 s⁻¹ and the kon was 307000 M⁻¹ s⁻¹.

The target of another assay is T2, Human CD112R expressed on cells. Nature of the assay: flow cytometry on 293T cells expressing human CD112R; 99-0.05 nM, three-fold dilutions. As to the method:
as §1
On to B1, for which the EC50 is 0.28 nM.

Molecule B2 returned a concentration giving a half-maximal response (EC50) of 0.4 nM.

The molecule B5 had a half-maximal effective concentration (EC50) of 0.3 nM.

Consider B4, for which the response was half-maximal at 0.3 nM (EC50).

B6 yielded an EC50 of 0.31 nM.

Another assay shares this target. Nature of the assay: flow cytometry EC-50 on human NK cells, against the reference Ab (member assigned from Table 7).
Consider B2, for which the “fold improved binding compared to the reference Ab” value (“fold improved binding” below) was above 2 fold.

In the case of B5, the “fold improved binding” value was above 2 fold.

As to B4, the “fold improved binding” value was above 2 fold.

Another assay shares this target. Briefly: flow cytometry; max binding on human NK cells against max binding on cynomolgus CD8 T cells. On the procedure:
as §1, §2
In the case of B1, the “Ratio Hu/Cyno (max binding)” value was 1.21.

As to B2, the “Ratio Hu/Cyno (max binding)” value turned out to be 1.07.

Take B5: the “Ratio Hu/Cyno (max binding)” value was determined as 1.2.

As for B4, the “Ratio Hu/Cyno (max binding)” value came to 1.06.

With B6, the “Ratio Hu/Cyno (max binding)” value came out at 1.21.

The target is the same in another assay. Nature of the assay: flow cytometry competition on 293T cells overexpressing CD112R; antibody 40-0.018 nM; competitor hNectin-2-mIgG2a at 125 nM. As to the method: The humanized anti-CD112R antibodies are potent blockers of CD112R—Nectin-2 interactions. […] The antibodies were added in a range of concentrations of 40-0.018 nM in a series of three-fold dilutions. The amount of bound hNectin-2-mIgG2a was detected by anti-mouse antibodies fluorescently labeled with Dy-light 647 (115-606-071 Jackson immunoresearch) and analyzed by FACS.
As for B1, the EC50 was found to be 0.32 nM and the EC-90 was 9.9 nM.

Molecule B5 returned an EC50 of 0.29 nM and an EC-90 of 10.7 nM.

B6 had an EC50 of 0.26 nM and an EC-90 of 9.6 nM.

The next assay shares this target. Briefly: FACS, chimeric mAb 99-0.4 nM in three-fold dilutions on HEK 293T cells overexpressing CD112R, anti-human-APC 1:200. On the procedure: For detection, anti-human-APC antibody (Ab) was used at 1:200 dilution, and cell binding was analyzed by FACS. FIG. 3C—8866 cells ([…]) overexpressing human Nectin-2 were incubated with 10 μg/ml of CD112R-Fc in the presence of isotype control Ab, or with the indicated clones at 4 μg/ml. Bound CD112R-Fc was detected by anti-mouse-Dy-647 1:250 dilution and analyzed by FACS. The blocking of CD112R binding exceeded 95% by all the variants.
Binding was analyzed by FACS and used for calculation of EC-50 values. […] The N31S variant, engineered to remove an N-Linked glycosylation motif at the CDR1 of the heavy chain, had improved (sub-nM) binding to human CD112R in this cell-based assay.
B9 displayed an EC50 of 1.29 nM.
